This is an account of results in US20130216476A1 (LFB BIOTECHNOLOGIES, priority 2010, published 2013).

The target of assay [1] is CD71 antigen (transferrin receptor) on the surface of ARH-77 myeloma cells (UniProt P02786). Description: flow cytometry on ARH-77 cells, control antibody at 10 µg/ml, anti-mouse IgG-PE. A general note: A flow cytometer gives signals particle by particle.
The next assay relates to ARH-77 tumour cells. Description: Survival of SCID mice bearing ARH-77 tumour cells, anti-CD71 antibody with or without Velcade, section 3.2 (FIG. 3). The format is in vivo. Here is the method:
The injection was carried out between 24 to 72 hours after whole-body exposure of the mice to gamma radiation (1.8 Gy, ^60Co, INRA, Dijon, France).
The day of injection of tumour cells is considered as day 0 (D0). […] The treatment with Velcade® commences on day 4 and therefore takes place on days D4, D7, D11, D14, D18, D25, D28 and D32.
The 40 mice are separated into 5 groups.
The injection volume of Velcade® (10 ml/kg) is adjusted to the […] of the individual animals.
The mice surviving the experiment were sacrificed after 144 days following the injection of tumour cells. An autopsy was carried out on all the mice found dead or sacrificed during the experiment due to the presence of one of the pathological signs specified in the above section.
Table 5 below compares the average survival of the mice in the 5 groups which died or were sacrificed before the end of the experiment due to the presence of the pathological signs specified above.

Assay [2] deals with CD71 antigen (transferrin receptor) on the surface of ARH-77 myeloma cells (UniProt P02786). Description: QIFIKIT indirect immunofluorescence, flow cytometry on ARH-77 cells, control antibody at 5 µg/ml; BAE is background non-specific binding capacity.
The target is the same in assay [3]. Nature of the assay: QIFIKIT indirect immunofluorescence, flow cytometry on ARH-77 cells, control antibody at 5 µg/ml, anti-mouse IgG-FITC.

Chain of UniProt P02786 (P02786 whole entry): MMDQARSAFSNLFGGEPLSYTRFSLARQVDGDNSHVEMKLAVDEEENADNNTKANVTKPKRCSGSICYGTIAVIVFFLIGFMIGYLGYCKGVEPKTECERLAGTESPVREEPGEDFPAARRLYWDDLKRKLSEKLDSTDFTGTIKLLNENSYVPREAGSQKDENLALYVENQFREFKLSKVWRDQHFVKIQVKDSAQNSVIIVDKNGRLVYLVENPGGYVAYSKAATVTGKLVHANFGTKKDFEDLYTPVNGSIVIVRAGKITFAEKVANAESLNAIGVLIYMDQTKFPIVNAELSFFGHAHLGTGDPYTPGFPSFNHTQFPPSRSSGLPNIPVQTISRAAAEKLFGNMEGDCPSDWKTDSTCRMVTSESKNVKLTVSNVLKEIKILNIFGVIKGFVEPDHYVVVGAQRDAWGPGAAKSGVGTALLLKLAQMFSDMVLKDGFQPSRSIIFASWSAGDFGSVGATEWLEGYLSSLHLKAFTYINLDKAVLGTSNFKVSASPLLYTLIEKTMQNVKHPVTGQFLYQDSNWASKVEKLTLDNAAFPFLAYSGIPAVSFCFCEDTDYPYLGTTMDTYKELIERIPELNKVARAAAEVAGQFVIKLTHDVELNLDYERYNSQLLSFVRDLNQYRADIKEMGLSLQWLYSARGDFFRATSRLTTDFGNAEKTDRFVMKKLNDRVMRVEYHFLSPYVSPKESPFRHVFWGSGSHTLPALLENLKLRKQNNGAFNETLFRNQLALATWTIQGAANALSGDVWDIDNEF

negative control antibody IgG1 (MAT002): in assay [1], the CD71+ % stood at 3.7%, the CD71- % is 96.3% and the MFI was 4.9.

Take `CC(C)C[C@H](NC(=O)[C@H](Cc1ccccc1)NC(=O)c1cnccn1)B(O)O` [Velcade®, bortezomib]: the “The number of mice that died before the end of the experiment” value in the assay on ARH-77 tumour cells (8 mice per group, end at day 144, doses as in Table 4) stood at 8. Further, the “day of death or of sacrifice due to pathological signs after injection of ARH-77 cells” value in the assay with ARH-77 tumour cells (8 mice per group, antibodies 1.2 mg/mouse/inj twice weekly for 6 weeks, Velcade 0.5 mg/kg/inj twice weekly for 4 weeks) is recorded as 27 day. Further, the The survival median in the assay on ARH-77 tumour cells (doses as in Table 4) was found to be 29.5. In the assay with ARH-77 tumour cells (only mice that died or were sacrificed before the end of the experiment, doses as in Table 4), the The survival average is given as 28.4 days.

In assay [2], “irrelevant antibody (anti-mouse IgG1) used as negative control” gave a BAE of 2290. The same compound yielded an MFI in assay [3] of 5.2.
